{
  "source": "paper PMC3364950",
  "about": "“Structure and Functional Analysis of the RNA- and Viral Phosphoprotein-Binding Domain of Respiratory Syncytial Virus M2-1 Protein”",
  "molecules": {"B1": {"name": "UGA2 (structured_RNA)", "RNA": "GCGCUUUUUUAAGCGC"}, "B2": {"name": "GS-neg (ssRNA)", "RNA": "UAUUUGCCCC"}, "B3": {"name": "long U-rich (ssRNA)", "RNA": "CCCAUUUUUUUGGUU"}, "B4": {"name": "leader-neg (ssRNA)", "RNA": "CGCAUUUUUUCGCGU"}, "B5": {"name": "GE_F-DNA (ssDNA)", "DNA": "TTTTATATAACT"}, "B6": {"name": "leader-pos (ssRNA)", "RNA": "ACGCGAAAAAAU"}, "B7": {"name": "GE_SH-neg (ssRNA)", "RNA": "UUUUUAAUUAACU"}, "B8": {"name": "short A-rich (short polyA) (ssRNA)", "RNA": "CCAAAAAAAU"}, "B9": {"name": "GE_F-neg (ssRNA)", "RNA": "UUUUAUAUAACU"}},
  "key": {"[1]": {"target": "T1, M2-1(58-177) core domain (human respiratory syncytial virus (hRSV, strain Long per Fig S7)) (UniProt P04545)", "T1 sequence": "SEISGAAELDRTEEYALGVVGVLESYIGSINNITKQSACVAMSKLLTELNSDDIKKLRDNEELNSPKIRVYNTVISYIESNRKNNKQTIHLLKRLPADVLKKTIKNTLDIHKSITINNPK", "assay": "NMR titration", "conditions": "NMR: 50-60 µM protein, 293 K, 14.1 T, 1:1 model, buffer/salt/pH not in material; EMSA: 100 µM GST fusion eluted with GSH, ~50 µM tRNA, 1 h room temperature …"}, "[2]": {"target": "RSV phosphoprotein P, full-length (P_(1–241)) (UniProt P12579)", "assay": "GST pull-down", "conditions": "parent: est. 100; read off a plot"}, "[3]": {"target": "RSV phosphoprotein P, full-length (P_(1–241)) (human respiratory syncytial virus (strain Long)) (UniProt P12579)", "assay": "ITC; M2-1_(58–177) (335 µM, 20 injections of 2 µL) injected into P (33 µM) in the cell; 1× PBS; 20°C"}, "[4]": {"target": "GST-M2-1 L148A (full-length) (human respiratory syncytial virus (strain Long))", "assay": "pull-down; ~25 µM GST-M2-1 (or GST) on Glutathione-Sepharose 4B beads in PBS with a 3-fold molar excess of purified P, 1 h at 20°C; washed with PBS; SDS-PAGE, Coomassie blue, bands quantified with ImageJ"}, "[5]": {"target": "GST-M2-1 N163D (full-length) (human respiratory syncytial virus (strain Long))", "assay": "pull-down; ~25 µM GST-M2-1 (or GST) on Glutathione-Sepharose 4B beads in PBS with a 3-fold molar excess of purified P, 1 h at 20°C; washed with PBS; SDS-PAGE, Coomassie blue, bands quantified with ImageJ"}, "[6]": {"target": "GST-M2-1 R126D (full-length) (human respiratory syncytial virus (strain Long))", "assay": "pull-down; ~25 µM GST-M2-1 (or GST) on Glutathione-Sepharose 4B beads in PBS with a 3-fold molar excess of purified P, 1 h at 20°C; washed with PBS; SDS-PAGE, Coomassie blue, bands quantified with ImageJ"}, "[7]": {"target": "GST-M2-1 T130D (full-length) (human respiratory syncytial virus (strain Long))", "assay": "pull-down; ~25 µM GST-M2-1 (or GST) on Glutathione-Sepharose 4B beads in PBS with a 3-fold molar excess of purified P, 1 h at 20°C; washed with PBS; SDS-PAGE, Coomassie blue, bands quantified with ImageJ"}, "[8]": {"target": "GST-M2-1 T160D (full-length) (human respiratory syncytial virus (strain Long))", "assay": "pull-down; ~25 µM GST-M2-1 (or GST) on Glutathione-Sepharose 4B beads in PBS with a 3-fold molar excess of purified P, 1 h at 20°C; washed with PBS; SDS-PAGE, Coomassie blue, bands quantified with ImageJ"}, "M2-1(58-177) core domain": {"target": "T2, M2-1(58-177) core domain (human respiratory syncytial virus …, UniProt P04545 58-177)", "T2 sequence": "T1 sequence", "assay": "NMR titration; NMR: 50-60 µM protein, 293 K, 14.1 T, 1:1 model, buffer/salt/pH not in material; EMSA: 100 µM GST fusion eluted with GSH, ~50 µM tRNA, 1 h room temperature, 1.5% agarose, 1x Tris-Glycine, 4°C", "conditions": "protein: recombinant, tags: N-terminal Gly-Ser left after thrombin cleavage of GST"}, "[9]": {"conditions": "predicted hairpin, poly-U loop, 2-3 bp stem"}},
  "data": [
    {"molecule": "AGUUAUAUAAAA / UUUUAUAUAACU [GE_F-ds]", "values": [
      {"measurement": "Kd", "setting": "[1]", "result": 4.5, "unit": "µM"}
    ]},
    {"molecule": "GST-M2-1 (full-length M2-1 fused to GST), WT K92D", "values": [
      {"measurement": "percent of parent", "setting": "[2]", "result": 54, "unit": "% WT"}
    ]},
    {"molecule": "GST-M2-1 (full-length M2-1 fused to GST), WT K150D", "values": [
      {"measurement": "percent of parent", "setting": "[2]", "result": 63, "unit": "% WT"}
    ]},
    {"molecule": "GST-M2-1 (full-length M2-1 fused to GST), WT R151D", "values": [
      {"measurement": "percent of parent", "setting": "[2]", "result": 44, "unit": "% WT"}
    ]},
    {"molecule": "RSV M2-1_(58–177) core domain (domain or fragment)", "values": [
      {"measurement": "Kd", "setting": "[3]", "result": 3000, "unit": "nM"},
      {"measurement": "stoichiometry N", "setting": "[3]", "result": 1}
    ]},
    {"molecule": "RSV phosphoprotein P, full-length (P_(1–241)) (from UniProt P12579 1-241) (natural protein)", "values": [
      {"measurement": "decrease in P binding against WT", "setting": "[4]", "result": "> 50", "unit": "%"},
      {"measurement": "decrease in P binding against WT", "setting": "[5]", "result": "> 50", "unit": "%"},
      {"measurement": "decrease in P binding against WT", "setting": "[6]", "result": "> 50", "unit": "%"},
      {"measurement": "decrease in P binding against WT", "setting": "[7]", "result": "> 50", "unit": "%"},
      {"measurement": "decrease in P binding against WT", "setting": "[8]", "result": "> 50", "unit": "%"}
    ]},
    {"molecule": "B1", "values": [
      {"measurement": "Kd", "setting": "M2-1(58-177) core domain; hairpin, 5 bp, U-stretch", "result": "60 ± 10", "unit": "µM"}
    ]},
    {"molecule": "B2", "values": [
      {"measurement": "Kd", "setting": "M2-1(58-177) core domain", "result": "110 ± 15", "unit": "µM"}
    ]},
    {"molecule": "B3", "values": [
      {"measurement": "Kd", "setting": "M2-1(58-177) core domain; [9]", "result": "125 ± 35", "unit": "µM"}
    ]},
    {"molecule": "B4", "values": [
      {"measurement": "Kd", "setting": "M2-1(58-177) core domain; [9]", "result": "75 ± 15", "unit": "µM"}
    ]},
    {"molecule": "B5", "values": [
      {"measurement": "Kd", "setting": "M2-1(58-177) core domain", "result": "250 ± 70", "unit": "µM"}
    ]},
    {"molecule": "B6", "values": [
      {"measurement": "Kd", "setting": "M2-1(58-177) core domain; partial self-association (two G-C and U-A pairs) seen by NMR", "result": "2.5 ± 1.5", "unit": "µM"}
    ]},
    {"molecule": "B7", "values": [
      {"measurement": "Kd", "setting": "M2-1(58-177) core domain", "result": "75 ± 15", "unit": "µM"}
    ]},
    {"molecule": "B8", "values": [
      {"measurement": "Kd", "setting": "M2-1(58-177) core domain", "result": "22 ± 6", "unit": "µM"}
    ]},
    {"molecule": "B9", "values": [
      {"measurement": "Kd", "setting": "M2-1(58-177) core domain", "result": "85 ± 25", "unit": "µM"}
    ]}
  ]
}
